Test results: US20220042033A1, “COMPOSITION AND METHOD FOR CONFERRING AND/OR ENHANCING TOLERANCE AGAINST HERBICIDES BY USING VARIANTS OF PPO” (FarmHannong Co., Ltd., priority 2017, published 2022)

What was measured:
MxPPO [1] = assay: Herbicide tolerance test of MxPPO wild type and variants in PPO-deficient E. coli BT3(ΔPPO), growth on herbicide-containing LB agar; assay type: cell-based, Myxococcus xanthus; conditions: relative to MxPPO WT
Method: Then, the extent of tolerance was evaluated.

MxPPO [2] = assay: PPO enzyme activity of purified MBP-fused MxPPO wild type and variants; assay type: biochemical, Myxococcus xanthus; conditions: PPO enzyme activity of purified MxPPO protein, relative to wild type
[3] = light, up to 400 μM (FIGS. 15-17)
[4] = light, up to 1000 μM (FIGS. 18-20)
[5] = dark, up to 1000 μM (FIGS. 21-22)
[6] = dark, up to 4000 μM (FIGS. 23-24)

Molecule	Herbicide tolerance, tiafenacil (MxPPO [1]; light, 2000 μM (FIG. 14))	Herbicide tolerance, flumioxazin (MxPPO [1]; [3])	Herbicide tolerance, sulfentrazone (MxPPO [1]; [4])	Activity (%) (MxPPO [2])	Herbicide tolerance, flumioxazin (MxPPO [1]; [5])	Herbicide tolerance, sulfentrazone (MxPPO [1]; [6])
I311M + L332T + M365V: MxPPO (SEQ ID NO: 3) variant (protein, Synthetic (Protoporphyrinogen IX oxidase (MxPPO) of Myxococcus xanthus)) MHHMPRTTGMNVAVVGGGISGLAVAHHLRSRGTDAVLLESSARLGGAVGTHALAGYLVEQGPNSFLDREPATRALAAALNLEGRIRAADPAAKRRYVYTRGRLRSVPASPPAFLASDILPLGARLRVAGELFSRRAPEGVDESLAAFGRRHLGHRATQVLLDAVQTGIYAGDVEQLSVAATFPMLVKMEREHRSLILGAIRAQKAQRQAALPAGTAPKLSGALSTFDGGLQVLIDALAASLGDAAHVGARVEGLAREDGGWRLIIEEHGRRAELSVAQVVLAAPAHATAKLLRPLDDALAALVAGIAYAPMAVVHLGFDAGTLPAPDGFGFTVPAEEQRRMLGAIHASTTFPFRAEGGRVLYSCVVGGARQPGLVEQDEDALAALAREELKALAGVTARPSFTRVFRWPLGIPQYNLGHLERVAAIDAALQRLPGLHLIGNAYKGVGLNDCIRNAAQLADALVAGNTSHAP	+ (1-9 fold higher tolerance)	+++ (100-999 fold higher tolerance)	++ (10-99 fold higher tolerance)	55%	–	–
I168C + M365I: MxPPO (SEQ ID NO: 3) variant (protein, Synthetic (Protoporphyrinogen IX oxidase (MxPPO) of Myxococcus xanthus)) MHHMPRTTGMNVAVVGGGISGLAVAHHLRSRGTDAVLLESSARLGGAVGTHALAGYLVEQGPNSFLDREPATRALAAALNLEGRIRAADPAAKRRYVYTRGRLRSVPASPPAFLASDILPLGARLRVAGELFSRRAPEGVDESLAAFGRRHLGHRATQVLLDAVQTGCYAGDVEQLSVAATFPMLVKMEREHRSLILGAIRAQKAQRQAALPAGTAPKLSGALSTFDGGLQVLIDALAASLGDAAHVGARVEGLAREDGGWRLIIEEHGRRAELSVAQVVLAAPAHATAKLLRPLDDALAALVAGIAYAPIAVVHLGFDAGTLPAPDGFGFLVPAEEQRRMLGAIHASTTFPFRAEGGRVLYSCIVGGARQPGLVEQDEDALAALAREELKALAGVTARPSFTRVFRWPLGIPQYNLGHLERVAAIDAALQRLPGLHLIGNAYKGVGLNDCIRNAAQLADALVAGNTSHAP	–	+ (1-9 fold higher tolerance)	+ (1-9 fold higher tolerance)	45%	–	–
I168C + M365V: MxPPO (SEQ ID NO: 3) variant (protein, Synthetic (Protoporphyrinogen IX oxidase (MxPPO) of Myxococcus xanthus)) MHHMPRTTGMNVAVVGGGISGLAVAHHLRSRGTDAVLLESSARLGGAVGTHALAGYLVEQGPNSFLDREPATRALAAALNLEGRIRAADPAAKRRYVYTRGRLRSVPASPPAFLASDILPLGARLRVAGELFSRRAPEGVDESLAAFGRRHLGHRATQVLLDAVQTGCYAGDVEQLSVAATFPMLVKMEREHRSLILGAIRAQKAQRQAALPAGTAPKLSGALSTFDGGLQVLIDALAASLGDAAHVGARVEGLAREDGGWRLIIEEHGRRAELSVAQVVLAAPAHATAKLLRPLDDALAALVAGIAYAPIAVVHLGFDAGTLPAPDGFGFLVPAEEQRRMLGAIHASTTFPFRAEGGRVLYSCVVGGARQPGLVEQDEDALAALAREELKALAGVTARPSFTRVFRWPLGIPQYNLGHLERVAAIDAALQRLPGLHLIGNAYKGVGLNDCIRNAAQLADALVAGNTSHAP	–	+ (1-9 fold higher tolerance)	+ (1-9 fold higher tolerance)	42%	–	–
R95A + A170C + L332T + M365I: MxPPO (SEQ ID NO: 3) variant (protein, Synthetic (Protoporphyrinogen IX oxidase (MxPPO) of Myxococcus xanthus)) MHHMPRTTGMNVAVVGGGISGLAVAHHLRSRGTDAVLLESSARLGGAVGTHALAGYLVEQGPNSFLDREPATRALAAALNLEGRIRAADPAAKRAYVYTRGRLRSVPASPPAFLASDILPLGARLRVAGELFSRRAPEGVDESLAAFGRRHLGHRATQVLLDAVQTGIYCGDVEQLSVAATFPMLVKMEREHRSLILGAIRAQKAQRQAALPAGTAPKLSGALSTFDGGLQVLIDALAASLGDAAHVGARVEGLAREDGGWRLIIEEHGRRAELSVAQVVLAAPAHATAKLLRPLDDALAALVAGIAYAPIAVVHLGFDAGTLPAPDGFGFTVPAEEQRRMLGAIHASTTFPFRAEGGRVLYSCIVGGARQPGLVEQDEDALAALAREELKALAGVTARPSFTRVFRWPLGIPQYNLGHLERVAAIDAALQRLPGLHLIGNAYKGVGLNDCIRNAAQLADALVAGNTSHAP	–	–	–	35%	+ (1-9 fold higher tolerance)	+++ (100-999 fold higher tolerance)
I168C + A170C + I311M + M365I: MxPPO (SEQ ID NO: 3) variant (protein, Synthetic (Protoporphyrinogen IX oxidase (MxPPO) of Myxococcus xanthus)) MHHMPRTTGMNVAVVGGGISGLAVAHHLRSRGTDAVLLESSARLGGAVGTHALAGYLVEQGPNSFLDREPATRALAAALNLEGRIRAADPAAKRRYVYTRGRLRSVPASPPAFLASDILPLGARLRVAGELFSRRAPEGVDESLAAFGRRHLGHRATQVLLDAVQTGCYCGDVEQLSVAATFPMLVKMEREHRSLILGAIRAQKAQRQAALPAGTAPKLSGALSTFDGGLQVLIDALAASLGDAAHVGARVEGLAREDGGWRLIIEEHGRRAELSVAQVVLAAPAHATAKLLRPLDDALAALVAGIAYAPMAVVHLGFDAGTLPAPDGFGFLVPAEEQRRMLGAIHASTTFPFRAEGGRVLYSCIVGGARQPGLVEQDEDALAALAREELKALAGVTARPSFTRVFRWPLGIPQYNLGHLERVAAIDAALQRLPGLHLIGNAYKGVGLNDCIRNAAQLADALVAGNTSHAP	–	–	–	44%	+ (1-9 fold higher tolerance)	+ (1-9 fold higher tolerance)
I168C + A170C + L332T + M365V: MxPPO (SEQ ID NO: 3) variant (protein, Synthetic (Protoporphyrinogen IX oxidase (MxPPO) of Myxococcus xanthus)) MHHMPRTTGMNVAVVGGGISGLAVAHHLRSRGTDAVLLESSARLGGAVGTHALAGYLVEQGPNSFLDREPATRALAAALNLEGRIRAADPAAKRRYVYTRGRLRSVPASPPAFLASDILPLGARLRVAGELFSRRAPEGVDESLAAFGRRHLGHRATQVLLDAVQTGCYCGDVEQLSVAATFPMLVKMEREHRSLILGAIRAQKAQRQAALPAGTAPKLSGALSTFDGGLQVLIDALAASLGDAAHVGARVEGLAREDGGWRLIIEEHGRRAELSVAQVVLAAPAHATAKLLRPLDDALAALVAGIAYAPIAVVHLGFDAGTLPAPDGFGFTVPAEEQRRMLGAIHASTTFPFRAEGGRVLYSCVVGGARQPGLVEQDEDALAALAREELKALAGVTARPSFTRVFRWPLGIPQYNLGHLERVAAIDAALQRLPGLHLIGNAYKGVGLNDCIRNAAQLADALVAGNTSHAP	–	–	–	40%	+ (1-9 fold higher tolerance)	++ (10-99 fold higher tolerance)
A170C + I311M + L332T + M365I: MxPPO (SEQ ID NO: 3) variant (protein, Synthetic (Protoporphyrinogen IX oxidase (MxPPO) of Myxococcus xanthus)) MHHMPRTTGMNVAVVGGGISGLAVAHHLRSRGTDAVLLESSARLGGAVGTHALAGYLVEQGPNSFLDREPATRALAAALNLEGRIRAADPAAKRRYVYTRGRLRSVPASPPAFLASDILPLGARLRVAGELFSRRAPEGVDESLAAFGRRHLGHRATQVLLDAVQTGIYCGDVEQLSVAATFPMLVKMEREHRSLILGAIRAQKAQRQAALPAGTAPKLSGALSTFDGGLQVLIDALAASLGDAAHVGARVEGLAREDGGWRLIIEEHGRRAELSVAQVVLAAPAHATAKLLRPLDDALAALVAGIAYAPMAVVHLGFDAGTLPAPDGFGFTVPAEEQRRMLGAIHASTTFPFRAEGGRVLYSCIVGGARQPGLVEQDEDALAALAREELKALAGVTARPSFTRVFRWPLGIPQYNLGHLERVAAIDAALQRLPGLHLIGNAYKGVGLNDCIRNAAQLADALVAGNTSHAP	–	–	–	52%	+ (1-9 fold higher tolerance)	–
R95A + I168C + A170C + I311M + M365V: MxPPO (SEQ ID NO: 3) variant (protein, Synthetic (Protoporphyrinogen IX oxidase (MxPPO) of Myxococcus xanthus)) MHHMPRTTGMNVAVVGGGISGLAVAHHLRSRGTDAVLLESSARLGGAVGTHALAGYLVEQGPNSFLDREPATRALAAALNLEGRIRAADPAAKRAYVYTRGRLRSVPASPPAFLASDILPLGARLRVAGELFSRRAPEGVDESLAAFGRRHLGHRATQVLLDAVQTGCYCGDVEQLSVAATFPMLVKMEREHRSLILGAIRAQKAQRQAALPAGTAPKLSGALSTFDGGLQVLIDALAASLGDAAHVGARVEGLAREDGGWRLIIEEHGRRAELSVAQVVLAAPAHATAKLLRPLDDALAALVAGIAYAPMAVVHLGFDAGTLPAPDGFGFLVPAEEQRRMLGAIHASTTFPFRAEGGRVLYSCVVGGARQPGLVEQDEDALAALAREELKALAGVTARPSFTRVFRWPLGIPQYNLGHLERVAAIDAALQRLPGLHLIGNAYKGVGLNDCIRNAAQLADALVAGNTSHAP	–	–	–	17%	+ (1-9 fold higher tolerance)	+++ (100-999 fold higher tolerance)
